The values below come from paper PMC3060121, “The Peroxisomal Targeting Signal 1 in sterol carrier protein 2 is autonomous and essential for receptor recognition” (BMC Biochemistry, 2011).

The target in experiment [1] is T1, Gal4DB-preSCP2 (1-143), two-hybrid fusion (human, UniProt P22307-2 1-143).
T1 construct: sterol carrier protein 2, human, residues 1-143, printed length 143; numbers count on: preSCP2 of 143 residues; In pPC97 between SalI and NotI; source: yeast two-hybrid fusion (S. cerevisiae PCY2)
T1 sequence (looked up): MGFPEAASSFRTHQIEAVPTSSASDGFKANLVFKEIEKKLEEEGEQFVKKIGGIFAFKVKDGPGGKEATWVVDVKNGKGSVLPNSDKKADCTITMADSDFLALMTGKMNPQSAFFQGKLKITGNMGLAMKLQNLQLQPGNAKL
As to the kind of experiment: two-hybrid; GAL4 based, S. cerevisiae PCY2; Gal4AD-Pex5p(C) with Gal4DB-SCP2 variants; β-galactosidase activity (A420 per mg protein per min), mean of three measurements. The settings on record: partners not purified.

Experiment [2] addresses T2, Gal4DB-mSCP2 (21-143), two-hybrid fusion (human, UniProt P22307-2 21-143).
T2 construct: sterol carrier protein 2, human, residues 21-143; numbers count on: preSCP2 of 143 residues; In pPC97 between SalI and NotI; source: yeast two-hybrid fusion (S. cerevisiae PCY2)
T2 sequence (looked up): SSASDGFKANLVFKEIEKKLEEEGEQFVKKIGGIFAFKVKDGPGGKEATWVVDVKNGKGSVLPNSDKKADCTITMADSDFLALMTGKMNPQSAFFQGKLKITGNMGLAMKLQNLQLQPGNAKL
The description is as above. The conditions noted are these: partners not purified.

For experiment [3], the target named is T3, human Pex5p(C) (residues 315-639) D624W (human, UniProt P50542 315-639, D624W, biotin (EZ-Link Sulfo-NHS-Biotinylation Kit, between 1 and 2 moles of biotin per mole) in the Octet RED96 assay only).
T3 construct: Made by QuikChange on the His6-GST Pex5p(C) plasmid; also called Pex5p(C) D624W
As to the kind of experiment: ITC; MicroCal VP-ITC; Pex5p(C) wild-type or mutant titrated with mSCP2 or the peptide PGNAKL; as described in ref 4. The settings on record: both partners purified.

Experiment [4] concerns the target T4, human Pex5p(C) (residues 315-639) R608W (human, UniProt P50542 315-639, R608W, biotin (EZ-Link Sulfo-NHS-Biotinylation Kit, between 1 and 2 moles of biotin per mole) in the Octet RED96 assay only).
T4 construct: Made by QuikChange on the His6-GST Pex5p(C) plasmid; also called Pex5p(C) R608W
The description is as above. The settings on record: both partners purified.

Experiment [5] concerns the target T5, human Pex5p(C), cargo-binding domain of Pex5p (residues 315-639), wild-type (human, UniProt P50542 315-639, biotin (EZ-Link Sulfo-NHS-Biotinylation Kit, between 1 and 2 moles of biotin per mole) in the Octet RED96 assay only).
T5 construct: The His6-GST fusion is cleavable with TEV protease; also called Pex5p(C) WT; HsPex5p(C)
Described as above. The settings on record: both partners purified.

In experiment [6] the target is T3, human Pex5p(C) (residues 315-639) D624W. Put plainly: BLI; Octet RED96; biotinylated Pex5p(C) immobilised on streptavidin sensors at 20 μg/mL; PBS, 1000 rpm; association 1800 s, dissociation 1800 s; local fits, 1:1 model. The settings on record: both partners purified.
Experiment [7] has as its target T4, human Pex5p(C) (residues 315-639) R608W. The description is as above. The conditions noted are these: both partners purified.
In experiment [8] the target is T5, human Pex5p(C), cargo-binding domain of …. The experiment is described as above. The settings on record: both partners purified.
Experiment [9] addresses T6, human Pex5p(C) (residues 315-639) S600W, infantile Refsum disease mutant (human, UniProt P50542 315-639, S600W, biotin (EZ-Link Sulfo-NHS-Biotinylation Kit, between 1 and 2 moles of biotin per mole)).
T6 construct: also called Pex5p(C)S600W
Described as above. The settings on record: both partners purified.

B1: Gal4AD-Pex5p(C) (residues 315-639) R608W, two-hybrid fusion (domain or fragment)
chain: not shown
notes: also called Pex5p(C) R608W; source: yeast two-hybrid fusion (S. cerevisiae PCY2)
In the case of B1, the “fold reduction of the two-hybrid interaction against wild-type Pex5p(C)” value in experiment [1] and in experiment [2] was 3 fold each time.

B2: PTS1 hexapeptide PGNAKL derived from the C-terminus of SCP2 (peptide)
peptide: PGNAKL
notes: C-terminal six residues of sterol carrier protein 2, human; numbers count on: preSCP2 of 143 residues; Free C-terminal carboxylate (PGNAKL-CO2-) as printed in the background; also called PGNAKL-CO2-; source: synthetic peptide (Sigma-Aldrich, > 95% purity)
As for B2, in experiment [3], binding was put at a Kd of 763 nM, the dH is -54.7 kJ/mol and the “stoichiometry N” value stood at 0.49 ± 0.01. For the same molecule, in experiment [4], the Kd was found to be 635 ± 25 nM, the dH is -51.6 kJ/mol and the “stoichiometry N” value was determined as 0.81 ± 0.01. In [5], the Kd came out at 547 ± 6 nM, the dH is -42.5 kJ/mol and the “stoichiometry N” value was 0.94 ± 0.02.

B3: mature sterol carrier protein 2, mSCP2 (21-143) (natural protein, human, UniProt P22307-2 21-143, looked up)
chain: SSASDGFKANLVFKEIEKKLEEEGEQFVKKIGGIFAFKVKDGPGGKEATWVVDVKNGKGSVLPNSDKKADCTITMADSDFLALMTGKMNPQSAFFQGKLKITGNMGLAMKLQNLQLQPGNAKL
notes: numbers count on: preSCP2 of 143 residues; The His6-GST fusion is cleavable with TEV protease
With B3, the equilibrium dissociation constant (Kd) in [3] was 45 ± 8 nM; in experiment [4], 179 ± 19 nM; in experiment [5], 95 ± 21 nM. Also, the results for the dH in [3], in [4] and in experiment [5] were -55.6 kJ/mol, -71.7 kJ/mol and -43.4 kJ/mol, respectively. Also, the “stoichiometry N” value in experiment [3] came to 0.41 ± 0.08; in experiment [4] it was 0.61 ± 0.06; in [5], 0.93 ± 0.03. Moreover, the koff in experiment [6] is 0.00015 s⁻¹; in [7] it was 7.3e-05 s⁻¹; in [8] it was 5.5e-05 s⁻¹; in experiment [9] it was 6e-05 s⁻¹. Moreover, the kon was 11000 M⁻¹ s⁻¹ in [6], 7200 M⁻¹ s⁻¹ in experiment [7], 23000 M⁻¹ s⁻¹ in [8] and 6500 M⁻¹ s⁻¹ in experiment [9].

B4: sterol carrier protein 2 with presequence, preSCP2 (1-143) (natural protein, human, UniProt P22307-2 1-143, looked up)
chain: MGFPEAASSFRTHQIEAVPTSSASDGFKANLVFKEIEKKLEEEGEQFVKKIGGIFAFKVKDGPGGKEATWVVDVKNGKGSVLPNSDKKADCTITMADSDFLALMTGKMNPQSAFFQGKLKITGNMGLAMKLQNLQLQPGNAKL
notes: numbers count on: preSCP2 of 143 residues; The His6-GST fusion is cleavable with TEV protease; also called full-length SCP2
Take B4: the koff in experiment [6] is 8.6e-05 s⁻¹; in experiment [7] it was 5e-05 s⁻¹; in experiment [8] it was 7.9e-05 s⁻¹; in experiment [9], 5.1e-05 s⁻¹. Also, the kon in experiment [6] was found to be 13000 M⁻¹ s⁻¹; in experiment [7], 9000 M⁻¹ s⁻¹; in experiment [8] it was 35000 M⁻¹ s⁻¹; in [9], 7300 M⁻¹ s⁻¹.
